Tested on: NC(=O)c1ccc[n+]([C@@H]2O[C@H](COP(=O)([O-])OP(=O)(O)OC[C@H]3O[C@@H](n4cnc5c(N)ncnc54)[C@H](O)[C@@H]3O)[C@@H](O)[C@H]2O)c1
Test: Inhibition of human IMPDH
Format: protein assay

Inosine-5'-monophosphate dehydrogenase (IMPDH) (Homo sapiens) (from UniProt P20839+P12268)
Km: 100 µM
